Broadly, the IC50 is the point on the concentration scale where inhibition reaches its midpoint. Read a high IC50 as weaker potency. A word on the Kd: it is the equilibrium constant for the complex coming apart. Low readings indicate higher affinity, high ones lower affinity. A word on the koff: it is the first-order rate constant of dissociation. Lower therefore signals a long-lived complex. A word on the kon: it is the rate constant with which the complex forms. A lower kon goes with slower complex formation.

Test [1] deals with T1, human CD22 (hCD22) expressed on the cell surface (human, UniProt P20273 20-847).
T1 construct: whole, on cells; One molecule is used for all cell-surface formats; also called human CD22 antigen; BHK-CD22
The test is described as follows: cell ELISA on BHK cells expressing human CD22, OD 655 nm. A general note: An ELISA detects its analyte on a solid surface through an enzyme-linked reagent.

Test [2] has as its target T1, human CD22 (hCD22) expressed on the …. The description is as above. The source holds these as a separate data set.
Test [3] shares this target. The test is described as follows: cell ELISA on BHK cells expressing human CD22, COS-7 supernatant, goat anti-human Ig-HRP, OD 450 nm. An excerpt:
(§1) The BHK-CD22 binding assay was used to test the binding activity of the chHB227 antibody in the transiently transformed COS 7 culture supernatants. A goat anti-human Ig-HRP conjugate (Sigma Chemicals) was used to detect binding of chHB22.7 mAb while a goat anti-mouse Ig-HRP conjugate (Southern Biotechnology) was used to detect binding of the parental mouse HB22.7 mAb. The bound HRP conjugates were exposed to the substrate o-phenyldiamine (OPD) and the resulting products detected at 450 nm.

The target is the same in test [4]. Nature of the test: cell ELISA on BHK cells expressing human CD22, COS-7 supernatant, OD 655 nm.
For test [5] the target is unchanged. The description is as above. This is another data set of the same source.
The target is the same in test [6]. The test is described as follows: cell ELISA on BHK cells expressing human CD22, OD 655 nm. This is another data set of the same source.
Test [7] shares this target. Nature of the test: BHK-CD22 cell ELISA, COS-7 supernatant.
The target is the same in test [8]. The test is described as follows: competitive cell ELISA on CD22; increasing mouse HB22.7 mixed with 250 ng/ml chHB227 (competitor); mouse HB22.7 titrated against 250 ng/ml chimeric antibody. The method, then: To confirm the binding effectiveness of the RHF+RKC humanized antibody, a competitive ELISA was performed with increasing amounts of the mouse HB22.7 antibody mixed with 250 ng/ml of chimeric or humanized antibody.

Test [9] has the same target. Nature of the test: cell ELISA on BHK cells expressing human CD22, goat anti-mouse Ig-HRP, OD 450 nm.
Source text: as §1

Test [10] has the same target. Nature of the test: flow cytometry on CHO cells transfected with human CD22, labelled secondary antibody, median fluorescence intensity. The method, then: CHO cells expressing hCD22 were prepared by transfection with a plasmid encoding human CD22 using the Lipofectamine procedure. […] Cells were incubated on ice for 20 minutes then washed and resuspended in PBS followed by addition of secondary antibody, either a goat anti-human (GAH) or GAM-F(ab)′2 anti human-RPE at a 1:1000 dilution. Cells were incubated on ice for an additional 10 minutes and binding activity was evaluated via FACS analysis on a Guava flow cytometer.
For orientation: In flow cytometry, cells or beads pass a laser one at a time.

Test [11] concerns the target hCD22 (ligand immobilised on the BIAcore CM5 sensor chip) (human, UniProt P20273 20-687, limits assumed). Nature of the test: SPR (BIAcore 3000), hCD22 immobilised on CM5 chip, IgG injected, 1:1 model. The method, then: Binding affinity of HB22.7 and RHOv2ACD/RKA were determined on a BIAcore 3000 instrument (BIAcore, Inc., Uppsala, Sweden). The ligand, hCD22, was prepared at 50 nM in 10 mM NaOAc, pH4 buffer. It was injected onto an EDC/NHS-activated CM5 sensor chip (BIAcore, Inc. Uppsala, Sweden) using a standard immobilization protocol. Following this, any unreacted active ester moieties were quenched using 1M Et-NH2 (ethanolamine; coupling reagents purchased from BIAcore, Inc.). A total of 535 and 689 RUs hCD22 remained bound to two sensor chip surfaces used in these experiments. Separately, a blank surface was prepared on each sensor chip using the identical protocol (minus protein). The blank surfaces were used as a reference cell in the experiments, and served to correct for both non-specific binding and some housekeeping artifacts.
For the kinetic experiments, HB22.7 and RHOv2ACD/RKA were prepared as two dilution series, starting at 22 nM and 100 nM, then diluted three- and two-fold, respectively, down to final concentrations of 0.03 nM and 0.39 nM in HBS-EP buffer (BIAcore, Inc., consisting of the following: 10 mM HEPES buffer, pH7.4, 150 mM NaCl, 3 mM EDTA, and 0.005% P20). Each concentration of IgG was then injected over both the CD22 and reference cell surfaces, which are connected in series. Between injections, surfaces were regenerated with a 1-minute injection of 3M MgCl2.

Test [12] deals with T1, human CD22 (hCD22) expressed on the …. The test is described as follows: cell ELISA on BHK cells expressing human CD22, COS-7 supernatant, OD 655 nm. The source holds these as a separate data set.
For test [13] the target is unchanged. Nature of the test: cell ELISA on BHK cells expressing human CD22, OD 655 nm. The source holds these as a separate data set.
The target is the same in test [14]. Nature of the test: cell ELISA on BHK cells expressing human CD22, RHOv2D heavy chain expressed with the RKC light chain in COS cells.

B1: chimeric HB22.7 antibody chHB227 (chH + chL) (antibody, V domains shown)
VH: QVQLKESGPGLVAPSQSLSITCTVSGFSLSDYGVNWVRQIPGKGLEWLGIIWGDGRTDYNSALKSRLNISKDNSKSQVFLKMNSLKADDTARYYCARAPGNRAMEYWGQGTSVTVS
VL: SIVMTQTPKFLLVSAGDRITLTCKASQSVTNDVAWYQQKPGQSPKLLIYYASNRYTGVPDRFTGSGYGTDFTFTISTVQAEDLAVYFCQQDYRSPWTFGGGTKLEI
notes: Tested as COS-7 supernatant; also called CH+CK; fully chimeric antibody
B1: the “EC50 (read off the curve)” value in test [1] was approximately 0.3 mg/L; in test [2] it was approximately 0.3 mg/L; in test [3], approximately 0.1 mg/L; in test [4] it was approximately 0.1 mg/L; in test [5] it was approximately 0.1 mg/L; in test [6], approximately 0.3 mg/L.

B2: HB227RHC heavy chain + chimeric HB22.7 light chain (chL) (antibody, human IgG1, V domains shown)
VH: QVQLQESGPALVKPTQTLTLTCTFSGFSLSDYGVNWIRQPPGKALEWLGIIWGDGRTDYNSALKSRLSISKDNSKNQVVLRMTNVDPVDTATYFCARAPGNRAMEYWGQGTVVTVSS
VL: SIVMTQTPKFLLVSAGDRITLTCKASQSVTNDVAWYQQKPGQSPKLLIYYASNRYTGVPDRFTGSGYGTDFTFTISTVQAEDLAVYFCQQDYRSPWTFGGGTKLEI
notes: Human IgG1 kappa, COS-7 supernatant; The VH entry may include the leader; also called RHC+chL
With B2, the “fold better binding than HB227RHB with the same chimeric light chain” value in [7] is approximately 2 fold.

B3: parental mouse monoclonal anti-CD22 antibody HB22.7 (antibody, V domains shown)
VH: QVQLKESGPGLVAPSQSLSITCTVSGFSLSDYGVNWVRQIPGKGLEWLGIIWGDGRTDYNSALKSRLNISKDNSKSQVFLKMNSLKADDTARYYCARAPGNRAMEYWGQGTSVTVS
VL: SIVMTQTPKFLLVSAGDRITLTCKASQSVTNDVAWYQQKPGQSPKLLIYYASNRYTGVPDRFTGSGYGTDFTFTISTVQAEDLAVYFCQQDYRSPWTFGGGTKLEI
notes: Mouse antibody from hybridoma ATCC HB11347; It was labelled with Alexa-fluor in some cell assays; also called mouse HB22.7; murine HB22.7
Molecule B3 displayed an IC50 in test [8] of approximately 4 mg/L. Moreover, in test [9], the “EC50 (read off the curve)” value is approximately 0.09 mg/L. The “EC50 (read off the curve)” value in [10] was approximately 0.2 ug mAb per 10e6 cells. In test [11], this molecule returned a Kd of 0.014 µM, a koff of 0.00017 s⁻¹ and a kon of 12000 M⁻¹ s⁻¹.

B4: HB227RHB heavy chain + chimeric HB22.7 light chain (chL) (antibody, human IgG1, V domains shown)
VH: QVQLQESGPALVKPTQTLTLTCTFSGFSLSDYGVNWIRQPPGKALEWLAIIWGDGRTDYNSALKSRLSISKDTSKNQVVLRMTNVDPVDTATYFCARAPGNRAMEYWGQGTVVTVSS
VL: SIVMTQTPKFLLVSAGDRITLTCKASQSVTNDVAWYQQKPGQSPKLLIYYASNRYTGVPDRFTGSGYGTDFTFTISTVQAEDLAVYFCQQDYRSPWTFGGGTKLEI
notes: Human IgG1 kappa, COS-7 supernatant; The VH entry may include the leader; also called RHB+chL
Take B4: in test [12], the binding result is “binds”.

B5: HB227RHOv2ABCD + HB227RKC humanized antibody (antibody, human IgG1, V domains shown)
VH: QVQLEESGGGVVRPGRSLRLSCAASGFTFDDYGVNWIRQAPGKGLEWVTIIWGDGRTDYNSALKSRFTVSRNNSNNTLSLQMNSLTTEDTAVYYCVRAPGNRAMEYWGQGVLVTVS
VL: DIVMTQSPSSLSASVGDRVTITCKASQSVTNDVAWYQQKPGKAPKLLIYYASNRYTGVPDRFSGSGYGTDFTLTISSLQPEDFATYFCQQDYRSPWTFGGGTKVEIKR
notes: No VH back mutations; Human IgG1 kappa, COS-7 supernatant; also called RHOv2ABCD+RKC
Consider B5, for which the binding result in test [13] is “binds”.

B6: HB227RHOv2D + HB227RKC humanized antibody (antibody, human IgG1, V domains shown)
VH: QVQLEESGGGVVRPGRSLRLSCAASGFTLSDYGVNWIRQAPGKGLEWVGIIWGDGRTDYNSALKSRFTVSRNNSNNTLSLQMNSLTTEDTAVYYCVRAPGNRAMEYWGQGVLVTVS
VL: DIVMTQSPSSLSASVGDRVTITCKASQSVTNDVAWYQQKPGKAPKLLIYYASNRYTGVPDRFSGSGYGTDFTLTISSLQPEDFATYFCQQDYRSPWTFGGGTKVEIKR
notes: RHOv2 with the F67L back mutation removed; Human IgG1 kappa, COS-7 supernatant; also called HB227v2D
Regarding B6, the binding result in test [14] is on record as “binds”.

The values are drawn from patent publication US20110182887A1 (AstraZeneca / MedImmune, published 2011).
